This is an account of results in patent publication US20260209761, “RNA-GUIDED ENDONUCLEASE SYSTEM AND USE THEREOF IN GENE EDITING” (HARBIN INSTITUTE OF TECHNOLOGY, published 2026).

This series deals with T1, FbRAD1/ISFba1 (RHS75625.1) (Firmicutes bacterium AM43-11BH).
T1 chain: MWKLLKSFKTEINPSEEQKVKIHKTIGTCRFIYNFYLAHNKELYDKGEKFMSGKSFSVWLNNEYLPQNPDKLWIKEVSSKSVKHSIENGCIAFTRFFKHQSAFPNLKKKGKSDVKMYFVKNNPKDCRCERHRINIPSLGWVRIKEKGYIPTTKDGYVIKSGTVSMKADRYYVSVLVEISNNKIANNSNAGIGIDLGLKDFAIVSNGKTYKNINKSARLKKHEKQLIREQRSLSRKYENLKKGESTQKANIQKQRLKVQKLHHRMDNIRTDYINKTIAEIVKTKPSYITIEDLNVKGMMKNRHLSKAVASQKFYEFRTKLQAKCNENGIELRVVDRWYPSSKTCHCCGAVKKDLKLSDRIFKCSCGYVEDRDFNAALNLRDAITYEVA
Briefly: co-purified RNA, degraded by RNase not DNase; about 180 nt; RNA-seq. The note with it: tags: GST (cleaved by PreScission), C-terminal 6His per expression cassette; stem loop, long hairpin with inner loop and pseudoknot (predicted).

B1: FbRAD1 RAGATH-18-associated RNA (ssRNA)
RNA: CUAAAACGCAAACGUAAGUAUGUACCGAAGGCUAUUUUCGGGAAUUUACGACUAUGGAGUGUACAAGAACUUGUGAGUAGAUAUGAUUUCGGUCAAUCCAAAGCAUACACGAUGAAAUAGUAAGUAAUGUUCGUGAGAACUUACAUUAUCUCGAUGUGAGCAUAUUUAAUCACAUUUUGAGUGGCAG
B1: the binding result is reported as “binds”.
